The values that follow come from publication PMC3340011 (Biophysical Chemistry, 2011).

Assay in all cases: fluorescence polarisation
(Polarisation of emitted light reports the rotation of a fluorescent probe.)

For assay [1], the target named is C-domain fragment of calmodulin, residues 76–148 (rat, UniProt P0DP29 77-149).
Assay [2] concerns the target N-domain fragment of calmodulin, residues 1–80 (rat, UniProt P0DP29 2-81).
In assay [3] the target is T1, Full-length mammalian calmodulin, residues 1–148 (rat) (rat, UniProt P0DP29 1-149).
In assay [4] the target is T1, Full-length mammalian calmodulin, …. The source holds these as a separate data set.

Like-named read-outs stand apart in the source and are kept apart here. Where no end group is shown, it is not given here.

B1: Fl-IQ′_(1650): IQ′_(1650) (residues 1650–1675 of Cav1.2 CTT) fluoresceinated at the N-terminus (peptide)
peptide: {5,6‑carboxyfluorescein}-ATFLIQEYFRKFKKRKEQGLVGKPSQ
Take B1: the dissociation constant (Kd) in assay [1] was at most 0.01 µM; in assay [2] it was 1.1 ± 0.97 µM; in assay [3] it was at most 0.002 µM; in assay [4], 2.5 ± 0.18 µM.

B2: Fl-C_(1614): C_(1614) (residues 1614–1635 of Cav1.2 CTT) fluoresceinated at the N-terminus (peptide)
peptide: {5,6‑carboxyfluorescein}-ELRAIIKKIWKRTSMKLLDQVV
For the molecule B2, the Kd in assay [1] is at most 0.07 µM; in assay [2], at most 0.07 µM; in assay [3], at most 0.002 µM; in assay [4] it was 4.1 ± 0.37 µM.

B3: Fl-A_(1588): A_(1588) (residues 1588–1609 of Cav1.2 CTT) fluoresceinated at the N-terminus (peptide)
peptide: {5,6‑carboxyfluorescein}-FNATLFALVRTALRIKTEGNLE
On to B3, for which, in assay [3], the Kd is at most 0.002 µM.

The term Kd denotes the equilibrium constant for the complex coming apart.
